Test results from article PMC4253547 (Leukemia research, 2014).
Positions count from the first letter of the chain named. Names may count otherwise. Where no end group is shown, it is not given here.

B1: Fluorescein AFF4 (WT) peptide (peptide)
chain: LIVKIDLNLLTRIP
modifications: also: fluorescein (position not given here)
B2: Fluorescein AFF4 (K717D) peptide (peptide)
chain: LIVDIDLNLLTRIP
modifications: also: fluorescein (position not given here)

Columns and labels:
MLLT3 (Homo sapiens) = MLLT3 (Homo sapiens) (UniProt P42568); conditions: cited from earlier work
MBP-AF9 (WT) = biological target: T1, MBP-AF9 (WT) (UniProt P42568 1-568); test: other fluorescence titration
T1 sequence (looked up): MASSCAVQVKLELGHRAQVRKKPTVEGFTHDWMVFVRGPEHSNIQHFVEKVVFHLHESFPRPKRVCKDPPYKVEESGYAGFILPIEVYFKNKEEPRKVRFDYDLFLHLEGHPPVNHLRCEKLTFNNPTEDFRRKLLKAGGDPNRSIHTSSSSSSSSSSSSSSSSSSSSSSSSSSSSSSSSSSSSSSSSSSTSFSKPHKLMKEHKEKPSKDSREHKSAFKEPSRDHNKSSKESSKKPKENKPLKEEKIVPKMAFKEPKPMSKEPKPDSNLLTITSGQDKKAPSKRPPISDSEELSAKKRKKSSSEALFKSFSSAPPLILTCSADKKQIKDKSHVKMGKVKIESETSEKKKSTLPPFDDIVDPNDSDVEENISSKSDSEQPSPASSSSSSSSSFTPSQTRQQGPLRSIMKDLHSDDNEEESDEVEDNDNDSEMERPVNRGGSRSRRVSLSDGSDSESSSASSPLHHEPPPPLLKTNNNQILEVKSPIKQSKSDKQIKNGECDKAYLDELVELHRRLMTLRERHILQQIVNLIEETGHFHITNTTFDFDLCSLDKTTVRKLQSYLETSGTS

MBP-AF9 (D544R) = biological target: T2, MBP-AF9 (D544R) (UniProt P42568 1-568, D544R); test: other fluorescence titration
T2 sequence (looked up): T1 sequence (looked up) with D544R

Molecule	Kd (MLLT3 (Homo sapiens)) [nM]	Kd (MBP-AF9 (WT)) [nM]	Kd (MBP-AF9 (D544R)) [nM]
AFF1 (from UniProt P51825)	0.17		
B1		0.2	
B2		37.4	0.21
